Reference: PMC10825162 (Nature Communications, 2024)

Biological target: SARS-CoV-2 spike (reference strain) expressed on CHO-K1 cells (SARS-CoV-2 reference strain (Wuhan-Hu-1), UniProt P0DTC2)
Assay: flow cytometry on cells
Details: one partner purified

B1: BA7208 (antibody, V domains shown)
VH: EVQLVQSGAEVKKPGESLKISCKGSGYSFTSYYWIGWVRQMPGKGLEWMGIVYPDDSDTRYSPSFQGQVTISADKSISTAYLQWSSLKASDTAMYYCVRHPGGGDWYFDLWGRGTLVTVSS
VL: DIQMTQSPSTLSASVGDRVTITCRASQSISSWLAWYQQKPGKAPKLLIYKASSLESGVPSRFSGSGSGTEFTLTITSLQPDDFATYYCQQYDSFSWTFGQGTKLEIK
Question: Does B1 bind?
Answer: Result: binds
